From article PMC8589032 (Journal of molecular biology, 2018) come the findings set out here.

Assay [1] addresses T1, ubiquitin (UniProt P0CG48 1-76). The experiment in a line: ITC.
Assay [2] concerns the target T1, ubiquitin. The experiment in a line: NMR titration.

B1: REV1 UBM2 (residues E998 to Q1040) (domain or fragment, human, UniProt Q9UBZ9-1 998-1040, looked up)
chain: ESNSDAGINLIALPAFSQVDPEVFAALPAELQRELKAAYDQRQ
Regarding B1, binding in the assay with ubiquitin [1] was characterised by a dissociation constant (Kd) of 14.9 ± 3 µM.

B2: REV1 UBM1-UBM2 (C958S C977A) (domain or fragment, human, UniProt Q9UBZ9-1 933-1040, looked up)
chain: PSPSQLDQSVLEALPPDLREQVEQVSAVQQAESHGDKKKEPVNGANTGILPQPVGTVLLQIPEPQESNSDAGINLIALPAFSQVDPEVFAALPAELQRELKAAYDQRQ
B2 showed a Kd with ubiquitin [1] of 18.7 ± 1.6 µM.

B3: REV1 UBM1-UBM2 (residues 933-1040, wild-type) (domain or fragment, human, UniProt Q9UBZ9-1 933-1040, looked up)
chain: PSPSQLDQSVLEALPPDLREQVEQVCAVQQAESHGDKKKEPVNGCNTGILPQPVGTVLLQIPEPQESNSDAGINLIALPAFSQVDPEVFAALPAELQRELKAAYDQRQ
As to B3, in the assay with ubiquitin [2], the binding result was “binds”.
